Measured values: US20070059825A1

Molecular target: human zalpha11 receptor (full-length, on cells) (human) (UniProt Q9HBE5)
Assay: cell-based or functional assay

UniProt Q9HBE5, sequence (Q9HBE5 20-538 limits assumed): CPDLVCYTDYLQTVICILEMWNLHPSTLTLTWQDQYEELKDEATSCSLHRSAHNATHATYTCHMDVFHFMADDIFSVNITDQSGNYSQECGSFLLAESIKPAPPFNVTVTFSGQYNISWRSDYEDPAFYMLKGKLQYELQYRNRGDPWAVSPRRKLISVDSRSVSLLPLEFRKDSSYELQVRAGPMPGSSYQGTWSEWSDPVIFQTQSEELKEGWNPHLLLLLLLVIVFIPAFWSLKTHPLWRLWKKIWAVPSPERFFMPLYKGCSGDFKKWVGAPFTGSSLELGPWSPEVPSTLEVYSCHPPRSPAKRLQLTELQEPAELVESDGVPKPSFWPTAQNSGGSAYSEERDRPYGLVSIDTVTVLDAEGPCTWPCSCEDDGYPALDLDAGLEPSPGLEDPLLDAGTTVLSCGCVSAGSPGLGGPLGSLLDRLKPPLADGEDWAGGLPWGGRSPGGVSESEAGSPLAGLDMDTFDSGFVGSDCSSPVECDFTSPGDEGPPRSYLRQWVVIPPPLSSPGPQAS
human zalpha11 Ligand-saporin immunotoxin conjugate, sequence (Q9HBE4 32-162): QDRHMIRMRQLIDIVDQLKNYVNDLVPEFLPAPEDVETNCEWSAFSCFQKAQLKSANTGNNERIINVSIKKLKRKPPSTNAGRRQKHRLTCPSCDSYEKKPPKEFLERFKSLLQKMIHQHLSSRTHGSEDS

Substance: human zalpha11 Ligand-saporin immunotoxin conjugate
- growth inhibition of IM-9 cells at the maximal conjugate concentration (250 ng/ml), Alamar Blue: 79%
- growth inhibition of RAMOS cells at the maximal conjugate concentration (250 ng/ml), Alamar Blue: 65%
